According to paper PMC10033635:

Molecular target: African cichlid nackednavirus capsid protein (African cichlid nackednavirus (ACNDV))
Test: cryo-EM structure; capsids assembled in E. coli and purified; TRIS buffer (50 mM TRIS, 50 mM NaCl, 5 mM EDTA, 5 mM DTT), pH 7.5; icosahedral symmetry imposed

African cichlid nackednavirus capsid protein (natural protein)
stoichiometry N (protein dimers): 90
